Experimental findings from the nanobody polyreactivity screen of Harvey et al. (2022) are described below.

A short description of the series: yeast display, Sf9 membrane polyspecificity reagent, FACS + sequencing; frameworks hold sequencing errors. In a few lines: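 Galactose induction of a Saccharomyces cerevisiae BJ5465 synthetic nanobody display library ran 36–48 hours. The cells were then stained for 1 hour at 4 °C with 10% biotinylated, detergent-solubilized Sf9 membrane reagent, pulled down on streptavidin microbeads and FACS-sorted into low and high (top ~1%) gates on expression and reagent-binding fluorescence. Labels for polyreactivity follow the gate of origin.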
As for “QVQLVESGGGLVQAGGSLRLSCAASGSTFWYYDMGWYRQAPGQERALVAASTSGGRTNYADSVKGRVTISRDKAKNTVYLQMNSLKPEDTAVYYCARTSYRFYRKRYYWGQGTQVTVSS”, the “polyreactivity (PSR sort gate)” value is “high polyreactivity”.
With “QVQLVESGGGLVQAGGSLRLSCAASGLTFRYYAMGGYRQAPGKERELDAAITSSGTSTYYADSVKGRFTISRDNAKNTVSLQMNSLKPEDTAVYYCAARYSGGTWSGYNYWGQGTQVTVSS” the entry was “high polyreactivity”; with “QVQLVESGGGLVQAGGSLRLSCAASGFIFSWYAMGWSRQAPGKERELVAAIDQSGDSTYYADSVKGRFTISRDNAKNTVYLQMNSLKPEDTAVYYCAAQSYDYWYDYDYWGQGTQVTVSS”, “high polyreactivity”.
For “QVQLVESGGGLDQAGGSLRLSCAASGSIFGYNGMGWYRQAPGKESEFVAAISYSGSRTYYADSVKGRFTISRDNAKNTVYLQMNSLKPEDTAVYYCATDDSHYLYRTVSAWEYDYWGQGTQVTVSS”, the “polyreactivity (PSR sort gate)” value is on record as “low polyreactivity”.
Take “QVQLVESGGGLVQAGGSLRLSCAASGFTFSPNAMGGYRQAPGKERELVAAISKRGASTYYADSVKGRFTISRDNAKNTVYLQMNSLKPEDTAVYYCNVGASARKPYDYWGQGTQVTVSS”: the “polyreactivity (PSR sort gate)” value is recorded as “high polyreactivity”.
With “QVQLVESGGGLVQAGGSLRLSCAASGSTFWPYTMGWYRPATGKESELVAAISLSGGSTYYADSVKGRFTISRDNAKNSVYLQMNSLKPEDTAVYYCAAEGGYQNWHYLYEYWGQGTQVTVSS” the entry was “low polyreactivity”; with “QVQLVESGGGLVQAGGSLRLSCAASGFIFPRYAMGWYRQAPGTERELVAAISRGGRTNYADSVKGRFTISRDNAKNTVYFQMNSLKPEDTAVYYCAKKYYLSGSRADDSWGQGTQVTVSS”, “high polyreactivity”; with “QVQLVESGGGLVQAGGSLRLSCAASGRTFLLYAMGWYRQAPGKERELVAAITSGGGRTYYADSVKGRFTISRDNAKNTVYLQMNSLKPEDTAVYYCAATRPATYAAYDYWGQGTQVTVSS”, “high polyreactivity”.
With “QVQLVESGGGLVQAGGILRLSCAASGSIYKPNTMGWYRQAPGKERELVAAITRGGRTKYADSVKGRFTISRDNAKNTVYLQMNSLKPEDTAVYYCNKARYTVISYDEYDDWGQGTQVTGSS” the entry was “high polyreactivity”; with “QVQLVESGGGVVQAGGSLRLSSAASGISFAYYAMGWYRQAPGKERELVASITNTGSTYYADSVKGRFTISRDNAKNSVYLEMTSLKPEDTAVYYCNAVLSSNTKWRYPGDDWGQGTQVTVSS”, “low polyreactivity”.
To “QVQLVESGGGLVQAGGSLRLSCAASGSILNAYAMGWYRQAPGKERELVAAITGSDGSTYYADSVKGRFTISRDNAKNTVYLQMNSLKPEDTAVYYCNADYSQPVYWWLDDYWGHGTQVTVSS” belongs “low polyreactivity”; to “QVQLVESGGGLVQAGGSLRLSCAASGLIFRRYAMGWYRQAPGKERELVAAITIGGSTSYADSVKGRFTISRDNAKNTVYLQMNSLKPEDTAVYYCAARWGALWYRPYDYWGQGTQVTVSS”, “high polyreactivity”.
On to “QVQLVESGGGLVQAGGSLRLSCAASGFTFITNAMGWYRQAPGNERELVASISIGGSTNYADSVKGRFTISRDNAKNTVYLQMTSLKPEDTAVYYCAARVYRRLFLPGRYGRPLGYWGQGTQVTVSS”, for which the “polyreactivity (PSR sort gate)” value is “high polyreactivity”.
To “QVQLVESGGGLVQAGGSLRLSCAASGSIFYLYALGWYRQAPGKERELVAAISSSGGRTYYADSVKGRFTISRDNAKNTVYLQMNSLKPEDTAVYYCAARYWAKYSYGYWGQGTQVTVSS” belongs “high polyreactivity”; to “QVHLVDSGGGLVQAGASLRLSCSASGSIFYSYAMGWYRPAPGKEWELVAAIRRGGSTNYADSVKGRFTISRDNAKNTVYLQMNSLKPEDTAVYYCAAGRFTYAAQRYEYWGQGTQVTVSS”, “high polyreactivity”; to “QVQLVESGRGLVQAGGTLRLSCAASGSIFGYYAMGWYRQAPGKERELVASISGSGGTTYYADSVKGRFTISRDNAKNTVYLQMNSLNPEDTAVYYCAARRSIYGYPFVTSRRGYWGQGTQVTVSS”, “high polyreactivity”.
With “QVQLVESGGGLVQAGGSLRLTCAASGRTFPGNAMGWYRQAPGKERELVAAISWSVDRTYYADSVKGRFTISRDNAKNTVYLQMNSLKPEDTAVYYCAAVHWWSSSLRMYYWGQGTQVTVSS” the entry was “low polyreactivity”; with “QVQLEESGGGLVQAGGSLRLSCAASGFTFDANAMGWYRQAPGKERELVAAISSGGGSTYYADSVKGRFTISRDNPKNTVYLQMNSLKPEDTAVYYCAKVYLVYKSYPYDYWGLGTQVTVSS”, “high polyreactivity”.
With “QVQLVESGGGLVQAGGSLRLICVASGRIFLTYAMGWYRQAPGKERELVAAISYSGASTYYADSVKGRFTISRDNAKNTVYLQMNSLKPEDTAVYYCAKDGTQYERQDPAYGYWGQGTQVTVSS”, the “polyreactivity (PSR sort gate)” value was “high polyreactivity”.
To “QVQLVESGGGLVQAGGSRRIICAASGGTFYYYAMGWYRQAPGKERELVAAITWSGASTRYADSVKGRFTISRDNAKNTVYLQMNSLKPEDTAVYYCAARRVRPLVTYGYWGQGTQLTVSS” belongs “high polyreactivity”.
As to “QVHLVESGGGLVQAGGSLRLSCAASGRIFAYNAMGWYRQAPGKERELVAAITSRGTSTYYADSVKGRFTISRDNAKNTVYLQMNSLKQEDTAVYYCNADYNRNSVQVSLYDYWGQGTQVTVSS”, the “polyreactivity (PSR sort gate)” value is reported as “low polyreactivity”.
With “QVQLVESGGGLVQAGGSLRLSCDASGYIFNYAMGWYRQAPGKERELVPAISRRGGSTYYADSVKGRFTISRDNAKNTVYLQMNSLKPEDTSVYYCAADRFRRLHYWTYDYWGKGTQVTVSS”, the “polyreactivity (PSR sort gate)” value is on record as “high polyreactivity”.
With “QVQLVESGGGLVQAGGSLRLSCAASGSTFNQYDMGWYRQAPGKERELVAAITWSGTSTYYADSVKGRFTISRDNAKNTVYLQMNSLTPEDTAVYYCAADDPFHSSCWTYRYGYWGQGTQVTVSS” the entry was “low polyreactivity”; with “QVQDVESGGGLVQAGGSLRLSCAASGRTIDPNAMGWYRQAPGKERELVAAITRTGVRTYYADSVKGRFTISRDNAKNTVYLQMNSLKPEDTAVYYCNRYGARSNDYWGQATQVTVSS”, “low polyreactivity”.
To “QVQLVESGGGLVQAGGSLRLSCAASGSIFRWYAMGWYRQAPGKERELVAAITSGGSTYYADSVKGRFTISRDNAKNTVYLQMNSLKPEDTAVYYCNAAKLASHTYDYWGLGTQVTVSS” belongs “low polyreactivity”.
With “QVQLVESGGGLVQAGASLRLSCAASGRIFSKNAMGWYRQAPGKERELVAAISANTGSTYYADSVKGRFTISRDNAKNTVYLQMNILKPEDTAVYYCATTWTIRRYRYTPRLVDYWGQGTQVTVSS” the entry was “low polyreactivity”; with “QVQLVESGGGLVQAGGSHRLSCDSSGTFKWYAMGWYRQAPGKERELVAVISTSGGTTNYADSVKGRFTISLDNAKNTVYLQMNSLKPEDTAVYYCNAAKLFRYDYWGQGTQVTVSS”, “high polyreactivity”.
Regarding “QVQLVESGGVLVQAGGSLRISCAASGSIFGSYAMGWYRQAPGKEREFVAAIRRSSASTYYADSVKGRFTISRDNAKNTVYLQMYSLKPEDTAVYYCATQCYCYYGYRYRYAAYDYRGQGTQVTVSS”, the “polyreactivity (PSR sort gate)” value is listed as “high polyreactivity”.
As for “QVQLVESGGGLVQAGGSLRVSCAASGRTFGYNAMGWYRQAPGKERELVATISWGGGSTYYADSVKVRFTISRDNAKNTVYLQMNSLKPEDTAVYYCAATYWTYPYHYQYKYDYWGQGTQVTVSS”, the “polyreactivity (PSR sort gate)” value is given as “high polyreactivity”.
With “QVQLVESGGGLVQAGGSLRLSCAASGSIFTWYAMGWYRQAPGKERELVAAITRGGSTYADSVKGRFTISRDNAKNTVYLQMNSLKPEDTAVYYCNAVYGVYDFNYWGQGTQVTVSS” the entry was “low polyreactivity”.
